Experiment: yeast display, Sf9 membrane polyspecificity reagent, FACS + sequencing; frameworks hold sequencing errors
Outline: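 Nanobodies from a synthetic yeast display library (Saccharomyces cerevisiae BJ5465), induced 36–48 hours with galactose, were stained 1 hour at 4 °C with 10% biotinylated, detergent-solubilized Sf9 membrane reagent, enriched on streptavidin microbeads, then FACS-sorted. Anti-HA (expression) and streptavidin (reagent binding) fluorescence set low and high (top ~1%) gates. Polyreactivity labels come from the gate of origin. Genes were colony-PCR amplified, MiSeq 2 × 250 sequenced and filtered by CDR length.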

Row | Sequence | polyreactivity (PSR sort gate)
1 | QVQLEESGGGLVQAGGSLRLSCAASGFTFVPYAMGWYRPAPGKETEFVAALFSDGSTYYADSVKGRFTISRDNAKNTVYLQMNSLKPEDTAVYYCAAAGESSRTGHFDYWGQGTQVTVSS | low polyreactivity
2 | QVQLEESGGGLVQAGGSLRLSCAASGFTFVSYAMGWYRQAPGKERELVAAISRRGGRTYYADSVKGRFTISRDNAKNTVYLQMNSLKPEDTAVYYCNKDYYGSPSSYYWYDYWGQGTQVTVSS | high polyreactivity
3 | QVQLEESGGGLVQAGGSLRLSCAASGFTFYDYAMVWYRQAPGKERELVAAIRRSGTRTYYADSVKGRFTISRDNAKNTVYLQINSLKPEDTAVYYCAARYSYTHQRDYWGQGTLVTVSS | high polyreactivity
4 | QVQLEESGGGLVQAGGSLRLSCAASGFTFYSYVMGWYRPAPGKVTELVAAIYWSGGSTYYADSVKGRFTISRDNAKYTVYLQMNSLKPEDTAVYYCAARRYASRNGYLYDYWGQGTQVTVSS | high polyreactivity
5 | QVQLEESGGGLVQAGGSLRLSCAASGGIFYEYAMGRYRQAPGKERELVATISFNVASTYADSVKGRFTISRDNAKNTVFLQMNSMKPEDTAVYYCIADTYWYRDSRYDYWGQGTQVTVSS | low polyreactivity
6 | QVQLEESGGGLVQAGGSLRLSCAASGIIFILYTMGWYRQAPGKERELVATISSGGGSTFYADSVKGRFTISRDNAKNTVYLQMNSLKPEDTAVYYCAAEQLYYGERYYIWGYYYWGQGTQVTVSS | low polyreactivity
7 | QVQLEESGGGLVQAGGSLRLSCAASGIIFRFYTMGWYRQAPGKERELVAVITWSGGSTYYADSVKGRFSISRDNAMNTVYLQMNSLKPEATAVYYCNAEYTYGNSVYKYDYWGQGTQVTVSS | low polyreactivity
8 | QVQLEESGGGLVQAGGSLRLSCAASGIIIATYAMGWYRQAPGKERELVAVISNDGSTHYADSVKGRFTISRDNAKNTVYLQMNSLKPEDTAVYYCNAEEIDEASYAYPPLEYDYWGQGTQVTVSS | low polyreactivity
9 | QVQLEESGGGLVQAGGSLRLSCAASGINFSVYGMGGYRQATGKERELVASITKSGGTTYYADSVKGRFTISRDNAKNTVYLQMNSLKPEDTAVYYCAAAWSDKRVLSVYYAYYWGQGTQVTVSS | high polyreactivity
10 | QVQLEESGGGLVQAGGSLRLSCAASGITFFWNAMGWYRQAPGTERELVAVISSGGSTKYSDSVKGRFTISRDNAKNTVYLQMNSLKPEDTAVYYCAAAVRVGTRQYGYWGQGTQVTVSS | high polyreactivity
11 | QVQLEESGGGLVQAGGSLRLSCAASGITFRQYAMGWYRQAPGKERELVATISSGDDTYYADSVKGRFTISRDNAKNTVYLQMNSLKPEDTAVYYCAARYWTSIVRYRGDYWGQGTQVTVSS | high polyreactivity
12 | QVQLEESGGGLVQAGGSLRLSCAASGITFSGNAMGWYRQAPGKERELVATISQSGGRTYYADSVKGRFTISRDNAKNTVYLQMNSLKPEDTAVYYCARRRLRYTDRGYYYWGQGTQVTVSS | high polyreactivity
13 | QVQLEESGGGLVQAGGSLRLSCAASGLTFRIYAMGWYRQAPGKERELVAAISYRGGSTYYADSVKGRFTISRDNAKNTVSLQMNSLKPEDTAVYYCAAGFVLNGIRYDFWGQGTQLTVSS | high polyreactivity
14 | QVQLEESGGGLVQAGGSLRLSCAASGLTISWNAMGWYRQAPGKERELVAAISSRGGSTYYADSVKARFKISRDNAKNTVYLQMNSLKPEETAVYYCAAEGYTYYPVYSTRMYYWGQGTQVTVLS | low polyreactivity
15 | QVQLEESGGGLVQAGGSLRLSCAASGNILWKNAMGWYRQAPGKERELVAAITRSGGSTYYADSVKGRFTISRDNAKNTVYLQMNSLKPEDTAVYYCATRNLGYRPYRYDYWGQGTQVTVSS | high polyreactivity
16 | QVQLEESGGGLVQAGGSLRLSCAASGRIFGGYAMGWYRQAPGKERELVAAITSSGSTNYADSVKGRFTISRDNAKNTVYLQMNSLKPEDTAVYYCATDFKTVYYWWGMDYWGQGTQVTVSS | low polyreactivity
17 | QVQLEESGGGLVQAGGSLRLSCAASGRIFYGNSMGWYRQAPGKERELVAAISKRGGSTYYADSVKGRFTISRDNAKNTVYLQMNSLKPEDTAVYYCAASYPTRAWEYDYWGQGTQVTVAS | high polyreactivity
18 | QVQLEESGGGLVQAGGSLRLSCAASGRIGAYAMGWYRQAPGKERELVAGITSNGASTYYADSVKGRFTISRDNAKNTVYLQMNSLKPEDTAVYYCAARYRFQRGGYYYWGQGTQVTVSS | high polyreactivity
19 | QVQLEESGGGLVQAGGSLRLSCAASGRIRYYAMGWYRQAPGKERELVAAISSTGGSTYYADSVKGRFTISRDNAKNTVYFQMNSLKPEDTAVYYCNVAWIWGKYEYWGQGTQVTVSS | high polyreactivity
20 | QVQLEESGGGLVQAGGSLRLSCAASGRISESNDRGWYRQAPGKERQLVAAISSSGGSTYYADSVKGRFTISRDTAKNTVYLQLNSLKPEDTAVYYCAREYIFSVYDYSTSYYYWGQGTQVTVSS | low polyreactivity
21 | QVQLEESGGGLVQAGGSLRLSCAASGRNFSVYAMGWYRPAPGKERELVARIRSGGSTYYADSVKGRFTISRDNAKNTVYLQMNSLKPEDTAVYYCAADGFASRWYAYYYWGQGTQVTVSS | high polyreactivity
22 | QVQLEESGGGLVQAGGSLRLSCAASGRTFPLYVMGWYRQAPGKEREWVAAISARGGSTYYADSVKGRFTISRDNAKNTVYLQMNSLKPEDTAVYYCATLVTNGRYDSWGQGTQVTVSS | high polyreactivity

Row | Sequence | polyreactivity (PSR sort gate)
23 | QVQLEESGGGLVQAGGSLRLSCAASGRTFQYYTMGWYRQAPGKEREFVAAIRDSGGSTYYADSVKGRFTISRDNAKNTVYLQMNSLKPEDTAVYYCNKVPNGPSNYDYWGQGTQVTVSS | high polyreactivity
24 | QVQLEESGGGLVQAGGSLRLSCAASGRTFRYNAMGWYRQAPGKERELVVAINWSGGSTYYADSVKGRFTISRDNAKNTVYLQMNSLKPEDTAVYYCAAEPTGWVWYAGYGYYWGQGTRVTVSS | high polyreactivity
25 | QVQLEESGGGLVQAGGSLRLSCAASGRTFVFNAMGWYRQAPGTERELVASINSRVGSTYYADSVKGRFTISRDNAKNTVYLQMNSLKPEDTAVYYCAARSYSSYYYWGQGTQVTVSS | high polyreactivity
26 | QVQLEESGGGLVQAGGSLRLSCAASGRTSRSYTMGWYRQAPGKERELVAAITRGGRTYYADSVKGRFTISRDNANNTVYLQMNSLKPEDTAVYYCDTVRVQSYGYWGQGTQVTVSS | low polyreactivity
27 | QVQLEESGGGLVQAGGSLRLSCAASGSIFAPYVMGWYRQATGKERELVAAITESGGRTYYADSVKGRFTISRDNAKNTVYLQMNSLKPEDTAVYYCAARTYDRNRQLRRQWYDYWGQGTQVTVSS | high polyreactivity
28 | QVQLEESGGGLVQAGGSLRLSCAASGSIFFGNDMGWYSQAPGKERELVAGISNGGRTNYADSVKGRFTISRDNAKNHVYLLMHSLKPEDTAVYYCAKHPVYIYWSRVLVGYSSWGQGTQGTVSS | low polyreactivity
29 | QVQLEESGGGLVQAGGSLRLSCAASGSIFGYNHMGWYRQAPGKERELVATITWGGGRTRYADSVKGRFTISRVNAKNTVYLQMNSLKPEDTAVYYCAADKRSYSYVRPPRNHEDYWGQGTQVTVSS | low polyreactivity
30 | QVQLEESGGGLVQAGGSLRLSCAASGSIFKFYAMGWYRQAPGKEREFVAAIRQSGGRTYYADSVKGRFTISRDNAKNTVYLPMNSLKPEDTAVYYCAADGYYWEYYYWGQGTQVTVSS | high polyreactivity
31 | QVQLEESGGGLVQAGGSLRLSCAASGSIFLNYGMGWYRQAPGKERELVAGISNGGSTNYADSVKGRFTISRDNAKNTVYLQMNSLKPEDTAVYYCARPAYKSRGKRFDYWGQGTQVTVSS | low polyreactivity
32 | QVQLEESGGGLVQAGGSLRLSCAASGSIFPWYAMGWYRQAPGKERELVAVITSGGSTNYADSVKGRFTISRANAKNTVYLQMNSLYPEDTAVYYCYADAPLDDFSPRFEVSTEHSWGQGTQVTVSS | low polyreactivity
33 | QVQLEESGGGLVQAGGSLRLSCAASGSIFQTYAMGWSRQAPGKERQLVAAITSGGGSTYYADSVKGRFTISRDNAKNTVYLQMNSLKREDTAVYYCAAGSRFVSSRLYYWGQGTQVTVSS | high polyreactivity
34 | QVQLEESGGGLVQAGGSLRLSCAASGSIFRSYAMGWYRQAPGKEREFVAAINSRSGSTYYADSVKGRFTISRDNAKNTVYLQMNSLKPEDTAVYYCAAKFAQPDYRYDYWGQGTQVTVSS | high polyreactivity
35 | QVQLEESGGGLVQAGGSLRLSCAASGSIFSAYFMVWYRQAPGKERELVAAINRGGNTYYADSVKGRFTISRDNANITVYLQMNSLKPEDTAVYYCNAQWYYLRYRYDYWGQGTQVTVSS | high polyreactivity
36 | QVQLEESGGGLVQAGGSLRLSCAASGSIFSIYAMGWYRQAPGKERELVASITRSSGRTYYADSVKGRFTISRDNAKNTVYLQMNSLKPEDTAVYYCAKDYIPLALDADDYWGQGTQVTVSS | low polyreactivity
37 | QVQLEESGGGLVQAGGSLRLSCAASGSIFVGYALGWYIQAPGKERELVASITTRGGSTHYADYVKGRFTISRDNAKNTVYLQMNSLKPEDTAVYYCAADSLSNGVLQYLPGYDYWGQGTQVTVSS | low polyreactivity
38 | QVQLEESGGGLVQAGGSLRLSCAASGSIFYDNVMGWSRQAPGKERELVAGITRGGSTNYADSVKGPFTISRDNAKNTVYLQMNSLKPEDTAVSYCAADGTYVWGSEEGNYWGQGTQVNVSS | low polyreactivity
39 | QVQLEESGGGLVQAGGSLRLSCAASGSIFYEYAMGLYRTAPGKERVFVAAISSRGGYTNYADSVKGRFTISRDNAKNTVYLQMNSLKPEDTAVYYWAGYGGLQSRYYYWGLGTQVTVSS | high polyreactivity
40 | QVQLEESGGGLVQAGGSLRLSCAASGSIFYQYDMGWYRQAPGKERELVAAITQRGGRTYYADSVKGRFTISRDNAKNTVDLKMNSLKPELTAVYYCAADNDSYWGYVYWGQGTQVTVSS | high polyreactivity
41 | QVQLEESGGGLVQAGGSLRLSCAASGSIIGPNAMGWYRQAPGKDRELVAAITSGSSTKYADSVKGRFTISRDNAMNTVYLQMNSLKPEDTAVDYCAASGTTTWKYGFWGQGTQVTVSS | low polyreactivity
42 | QVQLEESGGGLVQAGGSLRLSCAASGSILDLNAMGWSRQATGKERELVAAISYSGDSTYYADSVKGRFTISRDNAKNTVYLQMNSQKPEDTAVYYCAAEVYGAVYDYWGQGTQVTVSS | low polyreactivity
43 | QVQLEESGGGLVQAGGSLRLSCAASGSIYYLNAMGWYRQAPGKERELVAAINSGGTTNYADSVKGRFTISRDNAKYTVYLQMNSLKPEDTAVYYCATDGYYYYYRVYKFDYWGQGTQVTVSS | low polyreactivity

From the nanobody polyreactivity screen of Harvey et al. (2022)
